Experimental data taken from the supplement of paper PMC10567573.

B1: C20orf112 (parent)
chain: YANGGLNYSYRGYGALSSNLQPPA

Variants of: B1
Assay: protein stability index of a GFP-peptide fusion (GPS, HEK-293T) (PSI 1-6); higher = more stable
Details: c terminus: a fixed tail appended
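Further: lentivirally expressed fusions sorted by FACS into six bins by GFP to DsRed ratio, PSI derived from sequencing read proportions per bin multiplied by bin number.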

Protein stability index: each site, then its substitutions
Y1: P 2.43, G 3.16, I 2.45, V 2.2, E 3.15, R 2.97, C 1.96, W 1.85, A 3.08, L 2.67, S 3.12, F 1.86, N 3.08, T 2.83, D 2.9, M 2.87, H 2.64, K 2.96, Q 3.32
N7: L 3.75, F 3.66, I 2.27, G 3.08, R 1.52, E 2.52, Y 2.53, W 2.86, K 1.81, A 2.81, V 1.15, H 3.47, C 2.1, P 2.47, T 1.2, D 1.36, M 2.76, S 2.38, Q 2.08
Y13: G 1.77, S 1.96, E 1.33, A 1.93, Q 2.13, D 1.82, C 2.63, L 2.87, P 2.04, M 2.56, F 2.5, V 1.73, W 2.96, I 2.29, R 1.42, N 1.84, H 2.01, T 1.66, K 2.12
S17: Y 2.53, C 2.2, N 1.88, I 3.55, E 2.23, D 1.87, A 1.58, Q 1.55, T 2.15, H 1.9, V 2.33, G 3.12, P 1.9, L 1.39, K 1.94, W 1.85, M 2.17, R 2.56, F 2.49
G4: E 2.01, C 1.91, Q 2.06, W 1.99, P 2.18, L 2.01, M 1.48, V 2.32, N 2.02, I 1.93, K 2.4, F 1.42, D 2.05, H 1.6, S 1.66, A 2.81, R 1.38, Y 2.38, T 1.98
L16: C 1.64, A 2.11, R 2.3, E 2.54, D 1.68, F 1.67, G 2.61, V 2.21, T 1.76, H 2.48, N 2.61, S 2.03, K 1.87, M 1.75, I 2.43, P 2.57, W 2.68, Y 2.05, Q 2.02
G5: T 1.91, N 1.72, D 2.08, H 2.08, Y 1.86, A 1.99, E 2.4, V 2.03, C 2.2, F 1.98, Q 1.93, M 2.49, K 1.82, I 2.21, R 1.98, S 1.65, L 1.9, W 2.37, P 2.02
S18: G 1.58, N 1.57, A 2.15, D 1.42, C 2.17, M 2.06, F 1.72, K 1.61, E 1.56, P 2.2, L 1.85, H 1.8, I 1.78
Y8: S 1.89, Q 1.64, H 1.85, C 2.22, M 1.95, E 2.13, T 1.84, G 2.19, I 2.15, R 2.04, P 1.37, N 2.22, W 2.23, L 1.94, A 1.76, K 1.83, F 1.73, D 1.95, V 2.19
A2: K 2.19, F 2.07, T 1.99, I 2.1, D 2.81, M 1.68, Y 2.63, R 2.22, V 2.49, H 1.62, N 2.3, C 1.87, W 2.22, E 2.63, G 1.95, Q 1.4, L 1.93, S 1.54
R11: W 2.44, L 2.31, Y 2.21, N 2.27, F 2.31, T 1.53, M 2.48, P 2.06, D 1.82, S 2.19, Q 2.32, E 1.94, C 3.49, A 1.72, V 2.09, H 1.69, G 2.24, K 2.09, I 1.98
L6: A 2.03, Q 1.55, W 2.27, Y 2.47, V 1.85, E 1.97, G 1.73, T 1.96, C 2.24, I 2.33, K 1.57, H 1.97, R 2.1, F 2.08, D 1.9, M 2.3, N 1.47, P 2.5, S 1.65
G12: C 2.85, V 3.16, P 1.91, R 1.08, L 2.31, Q 1.86, N 1.93, E 1.63, Y 3, H 2.55, W 2.08, T 2.23, F 1.67, K 1.97, I 2.72, S 1.91, A 2.46, D 1.42, M 2.48
G14: V 2.4, L 3.28, K 2.21, H 2.07, A 1.76, W 3.05, P 2.54, T 2.8, D 1.54, Y 2.91, N 2.87, S 2.32, M 2.18, Q 1.76, C 3.39, I 3.6, F 2.52, R 2.7, E 2.45
S9: D 1.97, H 1.82, G 1.88, V 2.6, C 1.7, M 2.77, F 2.99, R 1.67, Y 1.59, P 1.7, N 1.89, K 1.57, T 1.82, E 1.43, W 2.46, A 2.35, I 2.58, Q 1.46
Y10: T 2.25, F 1.5, C 2.23, P 1.92, K 1.73, E 1.32, H 2.15, W 2.66, G 1.5, N 1.89, L 2.3, Q 1.77, D 1.54, V 1.89, R 2.01, I 1.99, S 2.48, A 1.9, M 2.97
A15: M 1.49, N 2.4, D 2.07, Y 2.97, F 2.68, S 2.22, K 2.24, Q 1.77, R 2.8, E 2.37, W 1.88, L 2.6, V 1.85, C 2.32, G 1.87, T 2.75, I 2.42, H 2.62, P 2.52
N3: L 2.25, Q 1.65, G 1.98, K 1.7, A 1.64, E 1.6, S 1.99, I 2.11, H 1.55, M 1.5, T 1.65, W 1.82, P 2.35, V 2.08, Y 1.8, R 2.25, C 1.69, F 2.04, D 2.56
